Data taken from paper PMC8811534.

Target: hAGO2 (human, UniProt Q9UKV8 1-859)
Experiment: EMSA

Chain of hAGO2 (Q9UKV8 whole entry): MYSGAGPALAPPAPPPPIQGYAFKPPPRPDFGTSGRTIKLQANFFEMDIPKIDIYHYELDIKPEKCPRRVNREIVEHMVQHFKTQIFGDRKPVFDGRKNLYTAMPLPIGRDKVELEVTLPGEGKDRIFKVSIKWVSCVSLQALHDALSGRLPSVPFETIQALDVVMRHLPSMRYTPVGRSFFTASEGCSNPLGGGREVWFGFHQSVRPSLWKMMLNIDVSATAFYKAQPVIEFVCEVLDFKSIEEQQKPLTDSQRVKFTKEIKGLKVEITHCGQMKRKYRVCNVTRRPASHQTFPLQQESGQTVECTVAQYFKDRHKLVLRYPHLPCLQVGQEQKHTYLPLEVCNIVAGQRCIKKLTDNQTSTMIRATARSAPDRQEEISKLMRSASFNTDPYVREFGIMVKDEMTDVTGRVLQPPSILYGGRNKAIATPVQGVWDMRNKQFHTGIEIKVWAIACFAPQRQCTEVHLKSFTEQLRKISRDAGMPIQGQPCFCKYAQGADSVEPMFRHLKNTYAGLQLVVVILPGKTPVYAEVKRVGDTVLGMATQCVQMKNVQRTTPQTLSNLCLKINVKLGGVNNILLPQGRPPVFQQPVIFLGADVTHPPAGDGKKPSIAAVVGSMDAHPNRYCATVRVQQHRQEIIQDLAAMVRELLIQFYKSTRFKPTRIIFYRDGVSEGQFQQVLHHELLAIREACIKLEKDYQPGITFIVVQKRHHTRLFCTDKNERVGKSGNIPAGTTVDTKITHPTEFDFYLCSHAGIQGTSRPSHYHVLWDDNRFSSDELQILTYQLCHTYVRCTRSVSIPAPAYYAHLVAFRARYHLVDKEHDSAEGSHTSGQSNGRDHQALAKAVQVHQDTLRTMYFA

B1: 5'Cy5-HIS-SARS2-1 DNA-RNA hybrid (DNA:RNA)
DNA: AGCCTTTACCTCCATTAGCATAGACA
RNA: UGUCUAUGCUAAUGGAGGUAAAGGCU
B1: binds.
